Source: US10441663B2, “Methods for treating cancer” (Bicycle Therapeutics Limited, priority 2016, dated 2019)
*1 amine or outer side, *2 acyl side, *3 side chain or, on linkers, in order; H or OH if unused. Where a SMILES comes first, the peptide text is derived from it. Bridges are numbered along the chain shown (N, C = ends). [ ]: non-standard residue; d: D form. The star is where a group is joined. ξ: configuration not given here. X2 = COc1cc2cc(c1Cl)N(C)C(=O)C[C@H](OC(=O)[C@H](C)N(C)C(=O)CCSC1CC(=O)N(CC3CCC(C(=O)*)CC3)C1=O)[C@@]1(C)O[C@H]1[C@H](C)[C@@H]1C[C@@](O)(NC(=O)O1)[C@H](OC)/C=C/C=C(\C)C2; 1Nal = N[C@@H](Cc1cccc2ccccc12)C(=O)O; TBMB = c1c(C[*:1])cc(C[*:3])cc1C[*:2]; Tle = CC(C)(C)[C@H](N)C(=O)O; ξA = CC(N)C(=O)O; Sar = CNCC(=O)O

How the values were obtained:
EBC-1 xenograft = assay: Efficacy of BT1721 in EBC-1 xenograft model (Example 6); assay type: in vivo, Mus Musculus; conditions: for Tumor Size: Mean ± SEM
Protocol: The objective of this study was to evaluate the anti-tumor efficacy of BT1721 in EBC-1 xenograft model in female BALB/c nude mice.
The EBC-1 tumor cells were maintained in vitro as a monolayer culture in RPMI1640 medium supplemented with 10% heat inactivated fetal bovine serum at 37° C. in an atmosphere of 5% CO2 in air. The tumor cells were routinely subcultured twice weekly by trypsin-EDTA treatment. The cells growing in an exponential growth phase were harvested and counted for tumor inoculation.
Each mouse was inoculated subcutaneously at the right flank with EBC-1 tumor cells (10×10^6) in 0.2 ml of PBS for tumor development. The treatments were started on Day 7 after the tumor inoculation when the average tumor size reached approximately 152 mm^3. Each group consisted of 3 tumor-bearing mice. The testing articles were administrated to the mice according to the predetermined regimen as shown in the experimental design (Table 43).
All the procedures related to animal handling, care and the treatment in the study were performed according to the guidelines of the Association for Assessment and Accreditation of Laboratory Animal Care (AAALAC). At the time of routine monitoring, the animals were daily checked for any effects of tumor growth and treatments on normal behavior such as mobility, food and water consumption (by looking only), body weight gain/loss (body weights were measured every day), eye/hair matting and any other abnormal effect as stated in the protocol. Death and observed clinical signs were recorded on the basis of the numbers of animals within each subset.
The major endpoint was to see if the tumor growth could be delayed or mice could be cured. Tumor size was measured three times weekly in two dimensions using a caliper, and the volume was expressed in mm^3 using the formula: V=0.5 a×b^2 where a and b are the long and short diameters of the tumor, respectively. The tumor size was then used for calculations of T/C value. The T/C value (in percent) is an indication of antitumor effectiveness; T and C are the mean volumes of the treated and control groups, respectively, on a given day.
TGI was calculated for each group using the formula: TGI (%)=[1−(Ti−T0)/(Vi−V0)]×100; Ti is the average tumor volume of a treatment group on a given day, T0 is the average tumor volume of the treatment group on the day of treatment start, Vi is the average tumor volume of the vehicle control group on the same day with Ti, and V0 is the average tumor volume of the vehicle group on the day of treatment start.
Summary statistics, including mean and the standard error of the mean (SEM), are provided for the tumor volume of each group at each time point.
Statistical analysis of difference in tumor volume among the groups was conducted on the data obtained at the best therapeutic time point after the final dose.
A one-way ANOVA was performed to compare tumor volume among groups, and when a significant F-statistics (a ratio of treatment variance to the error variance) was obtained, comparisons between groups were carried out with Games-Howell test. All data were analyzed using Prism. P<0.05 was considered to be statistically significant.

HT1080 cell line = assay: In vitro cytotoxicity, ATP endpoint assay after 72 hours incubation; assay type: cell-based; conditions: ATP endpoint, HT-1080 cells
Protocol: To evaluate the in vitro cytotoxicity of BT1718 and BT1721 in an HT1080 cell line using an ATP endpoint assay after 72 hours incubation.
Cells were seeded in 96 well plates (75 μl/well, HT1080=7500−15000 cell/well) and incubated overnight at 37° C.+5% CO2.
The day after cell seeding, serial dilutions (1:5) of BT1718 and BT1721 were prepared in DMSO and diluted 1:71 in cell culture media to give 4× final concentrations. Twenty five μl/well was added to the cells (2 μM or 5 μM top final concentration of BT1718 and 2 μM or 5 μM top final concentration of BT1721, <0.6% final DMSO).
Cells were 30-50% confluent upon dosing. Control wells containing 5 μM final concentration of staurosporine (positive control), lysis buffer (1% NP40, 20 mM Tris pH8, 137 mM NaCl, 10% glycerol, 2 mM EDTA, 1 mM Na Orthovanadate, 10 μg/ml leupeptin, 10 μg/ml aprotinin) positive control or media (negative control), were also included. Plates were sealed with gas permeable seals and incubated at 37° C.+5% CO2 for 72 hours. No wash steps were performed.
After a total of 72 hours after dosing, ATPLite reagent (Perkin Elmer) was equilibrated to room temperate and reconstituted in the supplied buffer as per the manufacturer's instructions. One hundred μl 1× detection reagent was added per well. Plates were sealed, protected from light and shaken gently for 20 minutes to ensure complete cell lysis before luminescence was read using a BMG Pherastar FS plate reader. […] Data was analysed using GraphPad Prism. Non-linear regression fit was used to calculate a relative IC50 for each toxic agent: Y=Bottom+(Top−Bottom)/(1+10^((Log Ic50−X)*HillSlope)) where the IC50 is defined as 50% of the total cell kill achieved at the top concentration of toxin.

Structure (SMILES): COc1cc2cc(c1Cl)N(C)C(=O)C[C@H](OC(=O)[C@H](C)N(C)C(=O)CCSC1CC(=O)N(CC3CCC(C(=O)NCCCC[C@H](NC(C)=O)C(=O)NCC(=O)N(C)CC(=O)N(C)CC(=O)N(C)CC(=O)N(C)CC(=O)N(C)CC(=O)N(C)CC(=O)N(C)CC(=O)N(C)CC(=O)N(C)CC(=O)N(C)CC(=O)NC(C)C(=O)N[C@H]4CSCc5cc6cc(c5)CSC[C@H](NC(=O)[C@@H](C)NC(=O)[C@H](Cc5cccc7ccccc57)NC(=O)[C@H](CCC(=O)O)NC(=O)[C@H](CC(N)=O)NC(=O)[C@@H](C)NC4=O)C(=O)N[C@@H](CCC(=O)O)C(=O)N[C@@H](CC(=O)O)C(=O)N[C@@H](Cc4ccccc4)C(=O)N[C@@H](Cc4ccc(O)cc4)C(=O)N[C@@H](CC(=O)O)C(=O)N[C@@H](C(C)(C)C)C(=O)N[C@H](C(N)=O)CSC6)CC3)C1=O)[C@@]1(C)O[C@H]1[C@H](C)[C@@H]1C[C@@](O)(NC(=O)O1)[C@H](OC)/C=C/C=C(\C)C2 (stereo partly shown) [BT1721] (Ac-K(X2)G[Sar][Sar][Sar][Sar][Sar][Sar][Sar][Sar][Sar][Sar][ξA]C[dA]NE[1Nal][dA]CEDFYD[Tle]C-NH2; linker 14-20-27 via TBMB)
- effect on tumor growth (EBC-1 xenograft; 1 mg/kg, 3 mg/kg and 10 mg/kg, day 14): didn't show any inhibitory effect on tumor growth
- tumor volume trace over time (EBC-1 xenograft; 1 mg/kg, tiw, day 0): 164 ± 31 mm^3
- tumor volume trace over time (EBC-1 xenograft; 1 mg/kg, tiw, day 2): 291 ± 57 mm^3
- tumor volume trace over time (EBC-1 xenograft; 1 mg/kg, tiw, day 4): 367 ± 68 mm^3
- tumor volume trace over time (EBC-1 xenograft; 1 mg/kg, tiw, day 7): 640 ± 39 mm^3
- tumor volume trace over time (EBC-1 xenograft; 1 mg/kg, tiw, day 9): 784 ± 40 mm^3
- tumor volume trace over time (EBC-1 xenograft; 1 mg/kg, tiw, day 11): 874 ± 50 mm^3
- T/C (EBC-1 xenograft; 1 mg/kg, tiw, day 14): 22%
- TGI (EBC-1 xenograft; 1 mg/kg, tiw, day 14): 82%
- tumor volume trace over time (EBC-1 xenograft; 1 mg/kg, tiw, day 14): 981 ± 47 mm^3
- Tumor Size (EBC-1 xenograft; 1 mg/kg, tiw, day 14): 981 ± 47 mm^3
- tumor volume trace over time (EBC-1 xenograft; 3 mg/kg, tiw, day 0): 142 ± 18 mm^3
- tumor volume trace over time (EBC-1 xenograft; 3 mg/kg, tiw, day 2): 207 ± 60 mm^3
- tumor volume trace over time (EBC-1 xenograft; 3 mg/kg, tiw, day 4): 310 ± 61 mm^3
- tumor volume trace over time (EBC-1 xenograft; 3 mg/kg, tiw, day 7): 531 ± 116 mm^3
- tumor volume trace over time (EBC-1 xenograft; 3 mg/kg, tiw, day 9): 708 ± 132 mm^3
- tumor volume trace over time (EBC-1 xenograft; 3 mg/kg, tiw, day 11): 761 ± 147 mm^3
- T/C (EBC-1 xenograft; 3 mg/kg, tiw, day 14): 26%
- TGI (EBC-1 xenograft; 3 mg/kg, tiw, day 14): 77%
- tumor volume trace over time (EBC-1 xenograft; 3 mg/kg, tiw, day 14): 920 ± 210 mm^3
- Tumor Size (EBC-1 xenograft; 3 mg/kg, tiw, day 14): 920 ± 210 mm^3
- effect on tumor growth (EBC-1 xenograft; 10 mg/kg tiw): did not show any inhibitory effect on tumor growth
- tumor volume trace over time (EBC-1 xenograft; 10 mg/kg, tiw, day 0): 160 ± 25 mm^3
- tumor volume trace over time (EBC-1 xenograft; 10 mg/kg, tiw, day 2): 249 ± 82 mm^3
- tumor volume trace over time (EBC-1 xenograft; 10 mg/kg, tiw, day 4): 407 ± 85 mm^3
- tumor volume trace over time (EBC-1 xenograft; 10 mg/kg, tiw, day 7): 632 ± 149 mm^3
- tumor volume trace over time (EBC-1 xenograft; 10 mg/kg, tiw, day 9): 735 ± 201 mm^3
- tumor volume trace over time (EBC-1 xenograft; 10 mg/kg, tiw, day 11): 858 ± 72 mm^3
- T/C (EBC-1 xenograft; 10 mg/kg, tiw, day 14): 6%
- TGI (EBC-1 xenograft; 10 mg/kg, tiw, day 14): 96%
- tumor volume trace over time (EBC-1 xenograft; 10 mg/kg, tiw, day 14): 1142 ± 147 mm^3
- Tumor Size (EBC-1 xenograft; 10 mg/kg, tiw, day 14): 1142 ± 147 mm^3
- Body Weight (EBC-1 xenograft; 1 mpk, tiw, day 0): 22.2 ± 0.7 g
- Body Weight (% Change) (EBC-1 xenograft; 1 mpk, tiw, day 0): 0.0%
- Body Weight (EBC-1 xenograft; 1 mpk, tiw, day 2): 22.0 ± 0.5 g
- Body Weight (% Change) (EBC-1 xenograft; 1 mpk, tiw, day 2): −1.1 ± 0.7%
- Body Weight (EBC-1 xenograft; 1 mpk, tiw, day 4): 22.4 ± 0.8 g
- Body Weight (% Change) (EBC-1 xenograft; 1 mpk, tiw, day 4): 0.8 ± 2.3%
- Body Weight (EBC-1 xenograft; 1 mpk, tiw, day 7): 22.5 ± 0.9 g
- Body Weight (% Change) (EBC-1 xenograft; 1 mpk, tiw, day 7): 1.3 ± 1.4%
- Body Weight (EBC-1 xenograft; 1 mpk, tiw, day 9): 23.2 ± 0.8 g
- Body Weight (% Change) (EBC-1 xenograft; 1 mpk, tiw, day 9): 4.4 ± 0.8%
- Body Weight (EBC-1 xenograft; 1 mpk, tiw, day 11): 22.9 ± 1.0 g
- Body Weight (% Change) (EBC-1 xenograft; 1 mpk, tiw, day 11): 3.1 ± 1.7%
- Body Weight (EBC-1 xenograft; 1 mpk, tiw, day 14): 23.3 ± 1.1 g
- Body Weight (% Change) (EBC-1 xenograft; 1 mpk, tiw, day 14): 4.6 ± 2.0%
- Body Weight (EBC-1 xenograft; 3 mpk tiw, day 0): 22.9 ± 0.4 g
- Body Weight (% Change) (EBC-1 xenograft; 3 mpk tiw, day 0): 0.0%
- Body Weight (EBC-1 xenograft; 3 mpk tiw, day 2): 22.3 ± 0.6 g
- Body Weight (% Change) (EBC-1 xenograft; 3 mpk tiw, day 2): −2.8 ± 1.3%
- Body Weight (EBC-1 xenograft; 3 mpk tiw, day 4): 22.3 ± 0.8 g
- Body Weight (% Change) (EBC-1 xenograft; 3 mpk tiw, day 4): −2.8 ± 1.9%
- Body Weight (EBC-1 xenograft; 3 mpk tiw, day 7): 23.1 ± 0.7 g
- Body Weight (% Change) (EBC-1 xenograft; 3 mpk tiw, day 7): 0.8 ± 1.8%
- Body Weight (EBC-1 xenograft; 3 mpk tiw, day 9): 23.9 ± 1.0 g
- Body Weight (% Change) (EBC-1 xenograft; 3 mpk tiw, day 9): 4.0 ± 2.8%
- Body Weight (EBC-1 xenograft; 3 mpk tiw, day 11): 24.0 ± 1.0 g
- Body Weight (% Change) (EBC-1 xenograft; 3 mpk tiw, day 11): 4.7 ± 2.7%
- Body Weight (EBC-1 xenograft; 3 mpk tiw, day 14): 24.6 ± 1.0 g
- Body Weight (% Change) (EBC-1 xenograft; 3 mpk tiw, day 14): 7.2 ± 2.9%
- Body Weight (EBC-1 xenograft; 10 mpk tiw, day 0): 23.2 ± 0.5 g
- Body Weight (% Change) (EBC-1 xenograft; 10 mpk tiw, day 0): 0.0%
- Body Weight (EBC-1 xenograft; 10 mpk tiw, day 2): 23.2 ± 0.3 g
- Body Weight (% Change) (EBC-1 xenograft; 10 mpk tiw, day 2): 0.0 ± 1.5%
- Body Weight (EBC-1 xenograft; 10 mpk tiw, day 4): 23.2 ± 0.4 g
- Body Weight (% Change) (EBC-1 xenograft; 10 mpk tiw, day 4): −0.3 ± 0.5%
- Body Weight (EBC-1 xenograft; 10 mpk tiw, day 7): 23.9 ± 0.5 g
- Body Weight (% Change) (EBC-1 xenograft; 10 mpk tiw, day 7): 2.8 ± 0.6%
- Body Weight (EBC-1 xenograft; 10 mpk tiw, day 9): 24.4 ± 0.4 g
- Body Weight (% Change) (EBC-1 xenograft; 10 mpk tiw, day 9): 5.1 ± 0.6%
- Body Weight (EBC-1 xenograft; 10 mpk tiw, day 11): 24.4 ± 0.6 g
- Body Weight (% Change) (EBC-1 xenograft; 10 mpk tiw, day 11): 5.0 ± 0.3%
- Body Weight (EBC-1 xenograft; 10 mpk tiw, day 14): 25.3 ± 0.5 g
- Body Weight (% Change) (EBC-1 xenograft; 10 mpk tiw, day 14): 8.8 ± 0.7%
- body weight effect (EBC-1 xenograft; mouse, in vivo): maintained their bodyweight well
- IC50 (HT1080 cell line): 8.9 nM
